Measurements from paper PMC10397247.

T1: 4H3632-bN
T1 chain: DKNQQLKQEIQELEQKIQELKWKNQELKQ

T2: 4H3070-bN
T2 chain: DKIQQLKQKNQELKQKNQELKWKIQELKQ

T3: 4H342-bN
T3 chain: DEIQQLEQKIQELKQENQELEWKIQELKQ

T4: 4H2691-bN
T4 chain: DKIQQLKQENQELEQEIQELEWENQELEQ

T5: 4H496-bN
T5 chain: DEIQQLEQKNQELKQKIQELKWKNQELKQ

T6: 4H344-bN
T6 chain: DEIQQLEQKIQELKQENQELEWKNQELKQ

T7: 4H2619-bN
T7 chain: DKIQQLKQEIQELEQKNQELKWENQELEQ

T8: 4H3961-bN
T8 chain: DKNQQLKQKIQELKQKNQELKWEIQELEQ

T9: 4H470-bN
T9 chain: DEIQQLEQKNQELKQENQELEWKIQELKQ

T10: 4H2745-bN
T10 chain: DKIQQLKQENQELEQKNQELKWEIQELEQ

T11: 4H3907-bN
T11 chain: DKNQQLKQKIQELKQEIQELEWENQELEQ

T12: 4H3112-bN
T12 chain: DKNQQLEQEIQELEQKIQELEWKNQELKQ

T13: 4H363-bN
T13 chain: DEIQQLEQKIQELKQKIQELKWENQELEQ


Key:
Assay in all cases: two-hybrid library CCNG1;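 note: natural log of median RNA to DNA barcode read ratio; higher means stronger binding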
[1] = molecular target: T1, 4H3632-bN
[2] = molecular target: T2, 4H3070-bN
[3] = molecular target: T3, 4H342-bN
[4] = molecular target: T4, 4H2691-bN
[5] = molecular target: T5, 4H496-bN
[6] = molecular target: T6, 4H344-bN
[7] = molecular target: T7, 4H2619-bN
[8] = molecular target: T8, 4H3961-bN
[9] = molecular target: T9, 4H470-bN
[10] = molecular target: T10, 4H2745-bN
[11] = molecular target: T11, 4H3907-bN
[12] = molecular target: T12, 4H3112-bN
[13] = molecular target: T13, 4H363-bN

| interaction score [1] | interaction score [2] | interaction score [3] | interaction score [4] | interaction score [5] | interaction score [6] | interaction score [7] | interaction score [8] | interaction score [9] | interaction score [10] | interaction score [11] | interaction score [12] | interaction score [13] | Binder |
| --- | --- | --- | --- | --- | --- | --- | --- | --- | --- | --- | --- | --- | --- |
| -1.21 | -1.24 | -0.0194 | -0.448 | 1.01 |  |  |  |  |  |  |  |  | DKIQQLKQENQELEQEIQELEWENQELEQ [4H2691-bN] |
| -0.529 | -0.245 | 1.23 | -1.49 | -1.66 | 0.255 | 0.209 | -1.65 | -0.608 | -0.673 | -0.483 | 0.149 | -1.48 | DKIQQLKQEIQELEQKNQELKWENQELEQ [4H2619-bN] |
